According to article PMC9482650, “Quantitative fragmentomics allow affinity mapping of interactomes” (Nature Communications, 2022):

How the values were obtained:
Assay in all cases: holdup assay
Parameters in all cases: key: below the threshold = too weak to quantify, mostly under pKd 3.1 to 4
[1] = molecular target: T1, ARHGAP21, Q5T5U3
T1 sequence (Q5T5U3 45-169, limits assumed, looked up): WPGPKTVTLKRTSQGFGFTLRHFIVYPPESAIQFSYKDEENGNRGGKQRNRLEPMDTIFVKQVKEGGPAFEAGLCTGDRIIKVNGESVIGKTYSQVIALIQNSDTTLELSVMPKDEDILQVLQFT

[2] = molecular target: LIMK2, P53671
[3] = molecular target: PICK1, Q9NRD5
[4] = molecular target: NHERF4_4, Q86UT5
[5] = molecular target: T2, SNTG2, Q9NY99
T2 sequence (Q9NY99 68-166, limits assumed, looked up): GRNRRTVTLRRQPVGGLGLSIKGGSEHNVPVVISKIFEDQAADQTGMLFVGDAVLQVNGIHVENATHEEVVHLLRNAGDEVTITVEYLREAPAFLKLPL

[6] = molecular target: T3, PDZRN3_1, Q9UPQ7
T3 sequence (Q9UPQ7 244-349, limits assumed, looked up): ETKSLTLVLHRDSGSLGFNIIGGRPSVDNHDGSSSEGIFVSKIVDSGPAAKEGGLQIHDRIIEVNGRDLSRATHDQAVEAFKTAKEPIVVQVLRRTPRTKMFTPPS

[7] = molecular target: SNX27, Q96L92
[8] = molecular target: IL16_3, Q14005
[9] = molecular target: Inadl_10, Q8NI35
[10] = molecular target: T4, APBA2_1, Q99767
T4 sequence (Q99767 563-664, limits assumed, looked up): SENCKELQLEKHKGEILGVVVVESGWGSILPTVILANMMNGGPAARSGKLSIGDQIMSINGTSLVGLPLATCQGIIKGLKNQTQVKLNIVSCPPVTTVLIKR

[11] = molecular target: Inadl_3, Q8NI35
[12] = molecular target: T5, SIPA1L2, Q9P2F8
T5 sequence (Q9P2F8 945-1036, limits assumed, looked up): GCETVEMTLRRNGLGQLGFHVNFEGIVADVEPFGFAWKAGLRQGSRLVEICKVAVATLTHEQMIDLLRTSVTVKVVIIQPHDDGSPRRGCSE

[13] = molecular target: Inadl_6, Q8NI35
[14] = molecular target: GRID2IP_2, A4D2P6
[15] = molecular target: T6, APBA1_1, Q02410
T6 sequence (Q02410 651-752, limits assumed, looked up): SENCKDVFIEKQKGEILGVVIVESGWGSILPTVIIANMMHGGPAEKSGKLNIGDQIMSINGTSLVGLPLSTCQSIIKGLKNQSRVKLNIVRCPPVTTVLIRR

[16] = molecular target: T7, SNTB1, Q13884
T7 sequence (Q13884 107-205, limits assumed, looked up): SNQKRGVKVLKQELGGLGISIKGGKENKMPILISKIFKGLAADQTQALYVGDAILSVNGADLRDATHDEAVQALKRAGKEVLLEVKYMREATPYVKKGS

[17] = molecular target: T8, DLG3_3, Q92796
T8 sequence (Q92796 374-475, limits assumed, looked up): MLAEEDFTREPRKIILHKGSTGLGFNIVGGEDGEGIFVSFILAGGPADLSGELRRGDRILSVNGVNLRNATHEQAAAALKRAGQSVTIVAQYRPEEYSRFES

[18] = molecular target: T9, LRRC7, Q96NW7
T9 sequence (Q96NW7 1440-1537, limits assumed, looked up): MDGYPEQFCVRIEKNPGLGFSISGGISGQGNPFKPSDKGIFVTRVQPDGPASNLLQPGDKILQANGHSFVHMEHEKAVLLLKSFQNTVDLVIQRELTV

[19] = molecular target: FRMPD4, Q14CM0
[20] = molecular target: T10, PARD3B_1, Q8TEW8
T10 sequence (Q8TEW8 196-299, limits assumed, looked up): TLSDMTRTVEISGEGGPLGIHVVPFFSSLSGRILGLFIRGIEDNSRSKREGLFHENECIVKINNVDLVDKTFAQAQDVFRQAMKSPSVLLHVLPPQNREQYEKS

[21] = molecular target: DLG4_1, P78352
[22] = molecular target: LNX1_3, Q8TBB1
[23] = molecular target: PDZRN4_1, Q6ZMN7
[24] = molecular target: T11, MPP6, Q9NZW5
T11 sequence (Q9NZW5 125-219, limits assumed, looked up): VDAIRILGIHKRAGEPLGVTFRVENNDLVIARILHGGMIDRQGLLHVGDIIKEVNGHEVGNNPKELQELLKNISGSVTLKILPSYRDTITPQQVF

[25] = molecular target: GRIP2_3, Q9C0E4
[26] = plain residues with an end cap or a label only (N-terminal biotin on a linker: ado-ado)
[27] = plain residues with an end cap or a label only (N-terminal biotin on a linker: ttds)
[28] = plain residues with an end cap or a label only (N-terminal biotin on a linker: ahx)

GRID2IP_2, A4D2P6, sequence (A4D2P6 272-370): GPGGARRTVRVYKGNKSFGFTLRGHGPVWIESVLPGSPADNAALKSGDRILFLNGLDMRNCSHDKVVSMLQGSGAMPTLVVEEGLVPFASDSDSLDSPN
PDZRN4_1, Q6ZMN7, sequence (Q6ZMN7 213-318): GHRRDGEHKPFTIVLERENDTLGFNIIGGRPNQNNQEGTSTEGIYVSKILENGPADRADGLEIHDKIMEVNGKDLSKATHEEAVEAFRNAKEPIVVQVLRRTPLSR
GRIP2_3, Q9C0E4, sequence (Q9C0E4 238-339): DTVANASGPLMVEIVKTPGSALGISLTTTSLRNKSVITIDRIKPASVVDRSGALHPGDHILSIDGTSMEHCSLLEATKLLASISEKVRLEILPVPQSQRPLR
Inadl_6, Q8NI35, sequence (Q8NI35 1058-1167): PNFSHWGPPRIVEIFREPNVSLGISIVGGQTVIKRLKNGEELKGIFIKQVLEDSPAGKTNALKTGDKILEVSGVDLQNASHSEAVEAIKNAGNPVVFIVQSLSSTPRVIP
LIMK2, P53671, sequence (P53671 143-248): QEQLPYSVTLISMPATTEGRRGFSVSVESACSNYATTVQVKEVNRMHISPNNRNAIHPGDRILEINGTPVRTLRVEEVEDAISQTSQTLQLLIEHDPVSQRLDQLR
LNX1_3, Q8TBB1, sequence (Q8TBB1 500-596): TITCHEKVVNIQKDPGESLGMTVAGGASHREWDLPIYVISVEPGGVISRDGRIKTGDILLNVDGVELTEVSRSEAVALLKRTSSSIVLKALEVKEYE
FRMPD4, Q14CM0, sequence (Q14CM0 67-160): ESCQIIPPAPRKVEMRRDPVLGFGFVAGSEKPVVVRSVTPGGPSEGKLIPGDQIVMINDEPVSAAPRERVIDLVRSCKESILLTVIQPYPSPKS
DLG4_1, P78352, sequence (P78352 62-152): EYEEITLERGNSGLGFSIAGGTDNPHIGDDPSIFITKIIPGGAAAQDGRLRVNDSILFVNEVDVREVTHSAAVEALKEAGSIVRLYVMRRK
Inadl_10, Q8NI35, sequence (Q8NI35 1673-1763): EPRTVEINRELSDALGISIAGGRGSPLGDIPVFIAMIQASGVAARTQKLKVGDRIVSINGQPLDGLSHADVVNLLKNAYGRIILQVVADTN
NHERF4_4, Q86UT5, sequence (Q86UT5 464-550): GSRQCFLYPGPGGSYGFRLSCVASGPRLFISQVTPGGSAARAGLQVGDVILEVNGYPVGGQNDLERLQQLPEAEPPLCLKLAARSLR
PICK1, Q9NRD5, sequence (Q9NRD5 17-115): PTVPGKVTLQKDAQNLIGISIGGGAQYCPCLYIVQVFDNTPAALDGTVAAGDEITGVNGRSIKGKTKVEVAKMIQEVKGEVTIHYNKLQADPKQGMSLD
Inadl_3, Q8NI35, sequence (Q8NI35 359-469): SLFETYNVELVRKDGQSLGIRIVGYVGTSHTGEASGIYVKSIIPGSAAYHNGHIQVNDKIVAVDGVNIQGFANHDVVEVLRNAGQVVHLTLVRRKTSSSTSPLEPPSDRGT
IL16_3, Q14005, sequence (Q14005 1107-1207): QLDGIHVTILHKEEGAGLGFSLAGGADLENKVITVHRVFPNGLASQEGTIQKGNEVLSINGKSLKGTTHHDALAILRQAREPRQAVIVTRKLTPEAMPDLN

Binder: KRPEMTSSSV [MUC3B, MUC3A, Q02505;Q9H195]
- pKd [1, 26]: 1.86
- pKd [2, 26]: below the threshold
- pKd [3, 26]: 2.09
- pKd [4, 26]: below the threshold
- pKd [5, 26]: 3.9
- pKd [6, 26]: below the threshold
- pKd [7, 26]: 5.03

Binder: ERKLSSESQV [LRP4, O75096]
- pKd [1, 27]: below the threshold
- pKd [8, 27]: below the threshold
- pKd [2, 27]: below the threshold
- pKd [9, 27]: below the threshold
- pKd [3, 27]: below the threshold
- pKd [10, 27]: below the threshold
- pKd [4, 27]: below the threshold
- pKd [5, 27]: 4.1
- pKd [11, 27]: below the threshold
- pKd [12, 27]: below the threshold
- pKd [13, 27]: below the threshold
- pKd [6, 27]: below the threshold
- pKd [14, 27]: below the threshold
- pKd [15, 27]: below the threshold
- pKd [16, 27]: 4.05
- pKd [17, 27]: 3.51
- pKd [18, 27]: below the threshold
- pKd [19, 27]: below the threshold
- pKd [7, 27]: 4.75
- pKd [20, 27]: below the threshold
- pKd [21, 27]: 4.17
- pKd [22, 27]: below the threshold
- pKd [23, 27]: below the threshold
- pKd [24, 27]: below the threshold
- pKd [25, 27]: below the threshold

Binder: KSRVAFFEEL [NF2, P35240]
- pKd [10, 26]: 3.54
- pKd [5, 26]: 3.74
- pKd [13, 26]: 3.47
- pKd [6, 26]: 3.54
- pKd [14, 26]: 3.59
- pKd [16, 26]: 3.54
- pKd [18, 26]: 3.5
- pKd [7, 26]: 3.7
- pKd [20, 26]: 3.83
- pKd [21, 26]: 3.63
- pKd [22, 26]: 3.61

Binder: SVWLRKETRV [CYSLTR2, Q9NS75]
- pKd [1, 27]: below the threshold
- pKd [8, 27]: below the threshold
- pKd [2, 27]: below the threshold
- pKd [9, 27]: below the threshold
- pKd [3, 27]: 3.42
- pKd [10, 27]: below the threshold
- pKd [4, 27]: below the threshold
- pKd [5, 27]: 5.09
- pKd [11, 27]: below the threshold
- pKd [12, 27]: below the threshold
- pKd [13, 27]: below the threshold
- pKd [6, 27]: 5.1
- pKd [14, 27]: 3.45
- pKd [15, 27]: below the threshold
- pKd [16, 27]: 5.5
- pKd [17, 27]: 5.34
- pKd [18, 27]: 3.65
- pKd [19, 27]: below the threshold
- pKd [7, 27]: 4.95
- pKd [20, 27]: below the threshold
- pKd [21, 27]: 4.92
- pKd [22, 27]: 3.46
- pKd [23, 27]: 4.76
- pKd [24, 27]: below the threshold
- pKd [25, 27]: below the threshold

Binder: SRPQRTQTQV [HPV67-E6, A4U7F2]
- pKd [1, 27]: below the threshold
- pKd [8, 27]: below the threshold
- pKd [2, 27]: below the threshold
- pKd [9, 27]: below the threshold
- pKd [3, 27]: below the threshold
- pKd [10, 27]: below the threshold
- pKd [4, 27]: below the threshold
- pKd [5, 27]: 3.98
- pKd [11, 27]: below the threshold
- pKd [12, 27]: below the threshold
- pKd [13, 27]: below the threshold
- pKd [6, 27]: 3.76
- pKd [14, 27]: below the threshold
- pKd [15, 27]: below the threshold
- pKd [16, 27]: below the threshold
- pKd [17, 27]: 4.3
- pKd [18, 27]: below the threshold
- pKd [19, 27]: below the threshold
- pKd [7, 27]: 3.98
- pKd [20, 27]: below the threshold
- pKd [21, 27]: 4.58
- pKd [22, 27]: below the threshold
- pKd [23, 27]: 3.82
- pKd [24, 27]: below the threshold
- pKd [25, 27]: below the threshold

Binder: HTHSYIETHV [CNKSR2, Q8WXI2]
- pKd [1, 28]: below the threshold
- pKd [8, 28]: below the threshold
- pKd [2, 28]: below the threshold
- pKd [9, 28]: below the threshold
- pKd [3, 28]: below the threshold
- pKd [10, 28]: below the threshold
- pKd [4, 28]: below the threshold
- pKd [5, 28]: 4.67
- pKd [11, 28]: 3.66
- pKd [12, 28]: below the threshold
- pKd [13, 28]: 4.22
- pKd [6, 28]: 3.8
- pKd [14, 28]: below the threshold
- pKd [15, 28]: below the threshold
- pKd [16, 28]: 4.6
- pKd [17, 28]: 4.01
- pKd [18, 28]: 4.75
- pKd [19, 28]: below the threshold
- pKd [7, 28]: 5.7
- pKd [20, 28]: below the threshold
- pKd [21, 28]: 4.4
- pKd [22, 28]: below the threshold
- pKd [23, 28]: below the threshold
- pKd [24, 28]: below the threshold
- pKd [25, 28]: below the threshold

Binder: RSLEEEESQL [GRASP, Q7Z6J2]
- pKd [1, 27]: 3.83
- pKd [8, 27]: below the threshold
- pKd [2, 27]: below the threshold
- pKd [9, 27]: below the threshold
- pKd [3, 27]: 3.59
- pKd [10, 27]: below the threshold
- pKd [4, 27]: below the threshold
- pKd [5, 27]: below the threshold
- pKd [11, 27]: below the threshold
- pKd [12, 27]: below the threshold
- pKd [13, 27]: 4.05
- pKd [6, 27]: 4.24
- pKd [14, 27]: 4.33
- pKd [15, 27]: below the threshold
- pKd [16, 27]: 3.89
- pKd [17, 27]: 3.81
- pKd [18, 27]: below the threshold
- pKd [19, 27]: 4.48
- pKd [7, 27]: 5.69
- pKd [20, 27]: 4.28
- pKd [21, 27]: 3.63
- pKd [22, 27]: below the threshold
- pKd [23, 27]: 4.17
- pKd [24, 27]: 3.53
- pKd [25, 27]: below the threshold
